Assay results taken from article PMC9462884, “Tensin3 interaction with talin drives the formation of fibronectin-associated fibrillar adhesions” (The Journal of Cell Biology, 2022).

Target: T1, talin R11 (recombinant wild-type mouse talin1 fragment R11) (mouse, UniProt P26039 1974-2140)
T1 construct: talin1, mouse, R11 rod domain, residues 1,974–2,140; 15N-labelled for the NMR experiments; also called talin R11 domain
Test: ITC; 80 µM R11 in the cell, 1.2 mM peptide in the syringe; 20 mM sodium phosphate pH 6.5, 50 mM NaCl, 0.5 mM TCEP, 25°C; single-site binding model
Conditions: both partners purified

T1 sequence (P26039 1974-2140): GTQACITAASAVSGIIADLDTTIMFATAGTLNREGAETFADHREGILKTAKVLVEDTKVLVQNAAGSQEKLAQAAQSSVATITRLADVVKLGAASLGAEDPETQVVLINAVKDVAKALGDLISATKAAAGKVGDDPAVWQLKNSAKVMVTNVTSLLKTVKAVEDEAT

- Kd: 17 µM
- dH: 4.8 kcal/mol
B1: tensin3 H1 peptide (peptide)
chain: TLDIDQSIEQLNRLILELDPT
modifications: synthetic peptide; terminal capping not stated. Limits conflict in the text: methods give 692-712 (used here, from the peptide purchase description and close to the predicted helix 690-710), results …
